According to patent US20240141059A1 (Bristol-Myers Squibb, published 2024):
Where a chain is given by its changes, count along the chain named.

What was measured:
human GITR on cells = target: T1, human GITR on cells (human, UniProt Q9Y5U5 26-241); assay: cell-based or functional assay
T1 sequence (looked up): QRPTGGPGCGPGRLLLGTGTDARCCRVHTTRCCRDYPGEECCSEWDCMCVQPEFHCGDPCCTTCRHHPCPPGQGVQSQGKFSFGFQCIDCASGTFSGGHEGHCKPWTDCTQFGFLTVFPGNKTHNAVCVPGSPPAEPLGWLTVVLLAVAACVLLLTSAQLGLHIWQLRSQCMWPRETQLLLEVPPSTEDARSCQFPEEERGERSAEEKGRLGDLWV

hCD32a-H131 = target: T2, hCD32a-H131 (human, UniProt P12318 34-217); assay: SPR, FcgR analyte on protein A captured dAb-Fc
T2 construct: also called FcgRIIa-H131
T2 sequence (looked up): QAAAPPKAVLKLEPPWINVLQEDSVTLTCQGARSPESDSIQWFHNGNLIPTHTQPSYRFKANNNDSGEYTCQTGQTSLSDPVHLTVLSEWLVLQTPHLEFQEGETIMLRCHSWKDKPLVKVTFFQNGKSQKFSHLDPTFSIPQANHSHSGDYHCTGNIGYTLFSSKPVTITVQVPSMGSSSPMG

hCD32a-R131 = target: T3, hCD32a-R131 (human, UniProt P12318 34-217); assay: SPR, FcgR analyte on protein A captured dAb-Fc
T3 construct: also called FcgRIIa-R131
T3 sequence (looked up): T2 sequence (looked up) with H134R

hCD32b = target: T4, hCD32b (human, UniProt P31994 43-217); assay: SPR, FcgR analyte on protein A captured dAb-Fc
T4 construct: also called FcgRIIb
T4 sequence (looked up): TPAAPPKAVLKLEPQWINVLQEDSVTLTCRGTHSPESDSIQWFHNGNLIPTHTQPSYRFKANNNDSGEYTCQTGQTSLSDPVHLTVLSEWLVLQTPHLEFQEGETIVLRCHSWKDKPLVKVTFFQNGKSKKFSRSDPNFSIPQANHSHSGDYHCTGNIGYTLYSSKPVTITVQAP

hCD16a-V158 = target: T5, hCD16a-V158 (human, UniProt P08637 17-208, limits assumed); assay: SPR, FcgR analyte on protein A captured dAb-Fc
T5 construct: also called FcgRIIIa-V158
T5 sequence (P08637 17-208 F176V limits assumed): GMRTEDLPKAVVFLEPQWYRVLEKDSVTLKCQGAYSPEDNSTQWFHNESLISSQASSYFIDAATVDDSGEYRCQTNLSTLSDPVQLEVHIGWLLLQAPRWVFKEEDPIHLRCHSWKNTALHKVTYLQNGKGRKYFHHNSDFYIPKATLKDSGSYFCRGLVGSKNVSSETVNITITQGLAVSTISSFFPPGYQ

hCD16b-NA2 = target: T6, hCD16b-NA2 (human, UniProt O75015 17-200, limits assumed); assay: SPR, FcgR analyte on protein A captured dAb-Fc
T6 construct: also called FcgRIIIb-NA2
T6 sequence (O75015 17-200 N65S limits assumed): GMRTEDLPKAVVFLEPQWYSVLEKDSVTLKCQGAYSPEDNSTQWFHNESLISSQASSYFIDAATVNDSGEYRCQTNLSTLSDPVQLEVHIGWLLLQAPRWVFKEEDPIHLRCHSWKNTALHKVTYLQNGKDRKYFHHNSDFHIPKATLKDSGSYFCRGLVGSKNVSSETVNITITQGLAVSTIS

B1: anti-GITR-IgG2 (antibody)
heavy: QVQLVESGGGVVQPGRSLRLSCAASGFTFSSYGMHWVRQAPGKGLEWVAVIWYEGSNKYYADSVKGRFTISRDNSKNTLYLQMNSLRAEDTAVYYCARGGSMVRGDYYYGMDVWGQGTTVTVSSASTKGPSVFPLAPCSRSTSESTAALGCLVKDYFPEPVTVSWNSGALTSGVHTFPAVLQSSGLYSLSSVVTVPSSNFGTQTYTCNVDHKPSNTKVDKTVERKCCVECPPCPAPPVAGPSVFLFPPKPKDTLMISRTPEVTCVVVDVSHEDPEVQFNWYVDGVEVHNAKTKPREEQFNSTFRVVSVLTVVHQDWLNGKEYKCKVSNKGLPAPIEKTISKTKGQPREPQVYTLPPSREEMTKNQVSLTCLVKGFYPSDIAVEWESNGQPENNYKTTPPMLDSDGSFFLYSKLTVDKSRWQQGNVFSCSVMHEALHNHYTQKSLSLSPGK
light: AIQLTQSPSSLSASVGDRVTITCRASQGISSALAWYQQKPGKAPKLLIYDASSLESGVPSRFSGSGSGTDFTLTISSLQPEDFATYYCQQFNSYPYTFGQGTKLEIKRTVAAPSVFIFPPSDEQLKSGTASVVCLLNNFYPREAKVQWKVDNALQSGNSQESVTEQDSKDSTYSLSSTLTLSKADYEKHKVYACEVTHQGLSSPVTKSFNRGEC
Human GITR on cells
  NFKB signaling EC50: ~0.01 µM

B2: 3h56-269-IgG1.1f (Fc fusion)
chain: EVQLLESGGGLVQPGGSLRLSCAASGFTFRDYEMWWVRQAPGKGLERVSAINPQGTRTYYADSVKGRFTISRDNSKNTLYLQMNSLRAEDTAVYYCAKLPFRFSDRGQGTLVTVSSASTEPKSCDKTHTCPPCPAPEAEGAPSVFLFPPKPKDTLMISRTPEVTCVVVDVSHEDPEVKFNWYVDGVEVHNAKTKPREEQYNSTYRVVSVLTVLHQDWLNGKEYKCKVSNKALPSSIEKTISKAKGQPREPQVYTLPPSREEMTKNQVSLTCLVKGFYPSDIAVEWESNGQPENNYKTTPPVLDSDGSFFLYSKLTVDKSRWQQGNVFSCSVMHEALHNHYTQKSLSLSPGK
hCD32a-H131
  Kd: > 5 µM
hCD32a-R131
  Kd: > 5 µM
hCD32b
  Kd: > 5 µM
hCD16a-V158
  Kd: > 5 µM
hCD16b-NA2
  Kd: > 5 µM
